Values of other authors, collected in patent US7630838B2, “Method for identifying agents that interact with beta-site APP cleaving enzyme (BACE)” (American Home Products Corporation, priority 2000, dated 2009).
Non-standard residues stand in square brackets, D forms with d. No end group written: not given here. Sta = CC(C)C[C@H](N)[C@@H](O)CC(=O)O

Molecular target: β-secretase enzyme (Homo sapiens, UniProt P56817)
Details: stated in words only; no number given

β-secretase enzyme, sequence (P56817 46-501): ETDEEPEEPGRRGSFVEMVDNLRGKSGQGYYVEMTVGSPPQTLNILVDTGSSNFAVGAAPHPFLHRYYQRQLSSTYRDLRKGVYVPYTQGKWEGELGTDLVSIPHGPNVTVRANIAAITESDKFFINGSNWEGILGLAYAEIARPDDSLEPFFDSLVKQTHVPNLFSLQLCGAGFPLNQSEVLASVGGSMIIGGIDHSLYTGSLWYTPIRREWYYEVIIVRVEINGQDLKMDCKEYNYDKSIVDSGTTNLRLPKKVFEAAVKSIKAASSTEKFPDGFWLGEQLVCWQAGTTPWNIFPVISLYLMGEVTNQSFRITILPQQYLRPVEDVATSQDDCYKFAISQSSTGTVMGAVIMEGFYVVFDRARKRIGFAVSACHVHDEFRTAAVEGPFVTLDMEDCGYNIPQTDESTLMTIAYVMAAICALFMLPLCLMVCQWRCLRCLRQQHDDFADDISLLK

- inhibit the β-secretase enzyme (efficiency): nanomolar efficiency
Substance: SER-GLU-VAL-ASN-Sta-VAL-ALA-GLU-PHE (SEVN[Sta]VAEF) [statine based inhibitor, based on the APP Swedish mutation]
